From patent US20230084763A1 (published 2023) come the findings set out here.

Assay [1] has as its target T1, CD20 (UniProt P11836 1-297).
T1 chain: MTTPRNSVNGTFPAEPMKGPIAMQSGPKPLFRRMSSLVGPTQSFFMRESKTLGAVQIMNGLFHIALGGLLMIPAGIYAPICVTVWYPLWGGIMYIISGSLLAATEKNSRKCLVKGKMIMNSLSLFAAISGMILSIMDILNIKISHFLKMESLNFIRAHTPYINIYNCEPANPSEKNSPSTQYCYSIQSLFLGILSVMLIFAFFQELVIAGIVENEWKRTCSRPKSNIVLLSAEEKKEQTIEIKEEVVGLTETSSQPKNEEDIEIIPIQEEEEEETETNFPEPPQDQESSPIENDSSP
Description: bio-layer interferometry; scFv, Run 1.

Assay [2] addresses T1, CD20. Kind of assay: bio-layer interferometry; scFv, Run 3. On the technique in general: BLI is a label-free optical method that tracks binding on a fibre tip over time.
Assay [3] has as its target T1, CD20. Kind of assay: bio-layer interferometry; scFv, Run 2.
Assay [4] has as its target T1, CD20. Description: bio-layer interferometry; scFv, Avg of 3 runs.

B1: Leu16 (antibody, V domains shown)
VH: EVQLQQSGAELVKPGASVKMSCKASGYTFTSYNMHWVKQTPGQGLEWIGAIYPGNGDTSYNQKFKGKATLTADKSSSTAYMQLSSLTSEDSADYYCARSNYYGSSYWFFDVWGAGTTVTVSS
VL: DIVLTQSPAILSASPGEKVTMTCRASSSVNYMDWYQKKPGSSPKPWIYATSNLASGVPARFSGSGSGTSYSLTISRVEAEDAATYYCQQWSFNPPTFGGGTKLEIK
Broadly, the Kd is the constant that tells how readily two partners part at equilibrium. Take B1: the Kd with CD20 [1] turned out to be 157 nM; with CD20 [2] it was 131 nM; with CD20 [3] it was 127 nM; with CD20 [4], 138 nM.

B2: Hybrid (antibody, V domains shown)
VH: QVQLQQPGAELVKPGASVKMSCKASGYTFTSYNMHWVKQTPGRGLEWIGAIYPGNGDTSYNQKFKGKATLTADKSSSTAYMQLSSLTSEDSAVYYCARSNYYGSSYWFFDVWGAGTTVTVSS
VL: QIVLSQSPAILSASPGEKVTMTCRASSSVNYMDWFQQKPGSSPKPWIYATSNLASGVPVRFSGSGSGTSYSLTISRVEAEDAATYYCQQWSFNPPTFGGGTKLEIK
For the molecule B2, the dissociation constant (Kd) in the assay with CD20 [1] came out at 75.5 nM; with CD20 [2] it was 82.2 nM; in the assay with CD20 [3], 95.5 nM; with CD20 [4] it was 84.4 nM.

B3: Rituximab (antibody, V domains shown)
VH: QVQLQQPGAELVKPGASVKMSCKASGYTFTSYNMHWVKQTPGRGLEWIGAIYPGNGDTSYNQKFKGKATLTADKSSSTAYMQLSSLTSEDSAVYYCARSTYYGGDWYFNVWGAGTTVTVSS
VL: QIVLSQSPAILSASPGEKVTMTCRASSSVSYIHWFQQKPGSSPKPWIYATSNLASGVPVRFSGSGSGTSYSLTISRVEAEDAATYYCQQWTSNPPTFGGGTKLEIK
Regarding B3, the figures for the dissociation constant Kd with CD20 [2] and with CD20 [4] were 122 nM and 119 nM, respectively.
